Measured values reported in patent publication US20250388664A1 (BIOARCTIC, published 2025).

T1: truncated cTfR1 of SEQ ID NO:123 (cynomolgus monkey, UniProt Q5RDH6 122-760 (Pongo abelii entry))
T1 construct: also called cynomolgus TfR1
T1 chain: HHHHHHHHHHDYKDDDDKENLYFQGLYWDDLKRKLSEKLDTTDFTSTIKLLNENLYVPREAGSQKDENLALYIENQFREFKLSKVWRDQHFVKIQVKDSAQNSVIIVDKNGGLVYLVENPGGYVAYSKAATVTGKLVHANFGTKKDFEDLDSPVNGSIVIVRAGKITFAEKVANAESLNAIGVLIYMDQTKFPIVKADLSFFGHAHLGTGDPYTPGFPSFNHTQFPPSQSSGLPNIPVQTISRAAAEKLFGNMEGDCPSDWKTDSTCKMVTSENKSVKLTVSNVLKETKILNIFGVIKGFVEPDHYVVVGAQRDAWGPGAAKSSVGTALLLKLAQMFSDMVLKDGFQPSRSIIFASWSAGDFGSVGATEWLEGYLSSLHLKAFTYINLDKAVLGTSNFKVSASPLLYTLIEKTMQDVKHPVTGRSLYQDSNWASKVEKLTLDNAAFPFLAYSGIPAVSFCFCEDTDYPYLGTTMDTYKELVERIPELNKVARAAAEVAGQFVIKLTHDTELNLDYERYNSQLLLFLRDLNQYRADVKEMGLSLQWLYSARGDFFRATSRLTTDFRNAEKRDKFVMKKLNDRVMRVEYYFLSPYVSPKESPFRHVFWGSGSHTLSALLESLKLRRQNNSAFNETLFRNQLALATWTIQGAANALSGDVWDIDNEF


Tests used:
[1] = biological target: T2, truncated hTfR1 of SEQ ID NO:122 (human, UniProt P02786 122-760); assay: SPR follow-up, 4 replicates, FLAG-captured hTfR1, scFv injected
T2 construct: also called human TfR1; Human TfR1
Experimental: (§1) The interaction was measured using the single cycle kinetics method with a contact time of 120 s at a flow rate of 30 μl/min followed by a dissociation time of 600 s. Regeneration of the surface between cycles was done by injecting 10 mM glycine-HCl, pH 1.7. The binding data was fitted to a 1:1 interaction model. The scFv variants were diluted in HBS-EP+ (Cytiva. #BR100669). Experiments were performed at 25° C.
The selected molecules were produced as described above.

[2] = biological target: T1, truncated cTfR1 of SEQ ID NO:123; assay: SPR, FLAG-captured TfR1, scFv injected, 1:1 fit
Experimental: as §1

[3] = biological target: T2, truncated hTfR1 of SEQ ID NO:122; assay: SPR, FLAG-captured TfR1, scFv injected, 1:1 fit
Experimental: as §1

T2 sequence (P02786 other isoform, or with tags, fused parts or gaps limits assumed): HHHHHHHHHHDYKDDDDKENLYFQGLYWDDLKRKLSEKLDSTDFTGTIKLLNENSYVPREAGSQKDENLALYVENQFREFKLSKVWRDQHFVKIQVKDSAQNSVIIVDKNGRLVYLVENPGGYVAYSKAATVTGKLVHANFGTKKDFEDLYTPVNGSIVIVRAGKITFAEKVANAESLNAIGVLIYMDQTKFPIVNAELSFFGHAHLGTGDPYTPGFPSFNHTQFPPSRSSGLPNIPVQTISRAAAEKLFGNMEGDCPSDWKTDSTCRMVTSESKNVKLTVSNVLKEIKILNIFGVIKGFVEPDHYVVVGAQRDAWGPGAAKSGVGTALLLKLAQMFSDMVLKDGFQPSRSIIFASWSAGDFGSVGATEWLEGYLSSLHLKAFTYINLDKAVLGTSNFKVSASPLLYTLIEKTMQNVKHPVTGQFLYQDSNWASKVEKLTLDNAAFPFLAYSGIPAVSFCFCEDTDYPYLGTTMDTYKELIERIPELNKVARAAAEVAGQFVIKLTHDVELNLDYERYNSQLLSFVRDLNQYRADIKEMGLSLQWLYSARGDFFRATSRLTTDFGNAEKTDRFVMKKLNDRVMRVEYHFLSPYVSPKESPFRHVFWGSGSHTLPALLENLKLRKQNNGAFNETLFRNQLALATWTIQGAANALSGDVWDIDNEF

Binder | Kd [1] [nM] | koff [1] [s⁻¹] | kon [1] [M⁻¹ s⁻¹] | Kd [2] [nM] | koff [2] [s⁻¹] | kon [2] [M⁻¹ s⁻¹] | Kd [3] [nM] | koff [3] [s⁻¹] | kon [3] [M⁻¹ s⁻¹]
h26D3-HC6_DS, VL-first (scFv) scFv: DIQMTQSPSSVSASVGDRVTITCKSSQSLLYSTNQKNYLAWYQQKPGKAPKLLIYWASTRESGVPSRFSGSGSGTDFTLTISSLQPEDFATYYCQQYFIYPRTFGCGTKVEIKGGGGSGGGGSGGGGSGGGGSEVQLVQSGAEVKKPGSSVKVSCKASGYIFTDYNMDWVRQAPGQCLEWIGDINPDADTTSYNEKFKGRATLTVDKSTSTAYMELSSLRSEDTAVYYCARGGYSGSSYYHPMDYWGQGTLVTVSS | 66.2 | 0.00439 | 67100 | 246 | 0.0114 | 47600 | 68.9 | 0.00434 | 63500
h26D3 HC6 DS T91A (scFv, also called h26D3 DS T91A) scFv: HHHHHHGGGGSGGGGSGGGGSGGGGSDIQMTQSPSSVSASVGDRVTITCKSSQSLLYSTNQKNYLAWYQQKPGKAPKLLIYWASTRESGVPSRFSGSGSGTDFTLTISSLQPEDFATYYCQQYFIYPRTFGCGTKVEIKGGGGSGGGGSGGGGSGGGGSEVQLVQSGAEVKKPGSSVKVSCKASGYIFTDYNMDWVRQAPGQCLEWIGDINPDADTTSYNEKFKGRATLTVDKSTSTAYMELSSLRSEDAAVYYCARGGYSGSSYYHPMDYWGQGTLVTVSS |  |  |  | 240 | 0.0111 | 46200 | 59.7 | 0.00388 | 65000
h26D3 HC6 DS T91S S122K (scFv, also called h26D3 DS T91S S122K) scFv: HHHHHHGGGGSGGGGSGGGGSGGGGSDIQMTQSPSSVSASVGDRVTITCKSSQSLLYSTNQKNYLAWYQQKPGKAPKLLIYWASTRESGVPSRFSGSGSGTDFTLTISSLQPEDFATYYCQQYFIYPRTFGCGTKVEIKGGGGSGGGGSGGGGSGGGGSEVQLVQSGAEVKKPGSSVKVSCKASGYIFTDYNMDWVRQAPGQCLEWIGDINPDADTTSYNEKFKGRATLTVDKSTSTAYMELSSLRSEDSAVYYCARGGYSGSSYYHPMDYWGQGTLVTVKS | 69.5 | 0.00463 | 67000 | 221 | 0.0108 | 48600 | 50.5 | 0.0038 | 76200
h26D3 HC6 DS L118S (scFv, also called h26D3 DS L118S) scFv: HHHHHHGGGGSGGGGSGGGGSGGGGSDIQMTQSPSSVSASVGDRVTITCKSSQSLLYSTNQKNYLAWYQQKPGKAPKLLIYWASTRESGVPSRFSGSGSGTDFTLTISSLQPEDFATYYCQQYFIYPRTFGCGTKVEIKGGGGSGGGGSGGGGSGGGGSEVQLVQSGAEVKKPGSSVKVSCKASGYIFTDYNMDWVRQAPGQCLEWIGDINPDADTTSYNEKFKGRATLTVDKSTSTAYMELSSLRSEDTAVYYCARGGYSGSSYYHPMDYWGQGTSVTVSS |  |  |  | 243 | 0.0107 | 44000 | 60 | 0.00393 | 66200
h26D3 HC6 DS S16E (scFv, also called h26D3 DS S16E) scFv: HHHHHHGGGGSGGGGSGGGGSGGGGSDIQMTQSPSSVSASVGDRVTITCKSSQSLLYSTNQKNYLAWYQQKPGKAPKLLIYWASTRESGVPSRFSGSGSGTDFTLTISSLQPEDFATYYCQQYFIYPRTFGCGTKVEIKGGGGSGGGGSGGGGSGGGGSEVQLVQSGAEVKKPGESVKVSCKASGYIFTDYNMDWVRQAPGQCLEWIGDINPDADTTSYNEKFKGRATLTVDKSTSTAYMELSSLRSEDTAVYYCARGGYSGSSYYHPMDYWGQGTLVTVSS |  |  |  | 277 | 0.0121 | 43800 | 68.9 | 0.00397 | 57700
h26D3 HC6 DS V11R T120K (scFv, also called h26D3 DS V11R T120K) scFv: HHHHHHGGGGSGGGGSGGGGSGGGGSDIQMTQSPSSVSASVGDRVTITCKSSQSLLYSTNQKNYLAWYQQKPGKAPKLLIYWASTRESGVPSRFSGSGSGTDFTLTISSLQPEDFATYYCQQYFIYPRTFGCGTKVEIKGGGGSGGGGSGGGGSGGGGSEVQLVQSGAERKKPGSSVKVSCKASGYIFTDYNMDWVRQAPGQCLEWIGDINPDADTTSYNEKFKGRATLTVDKSTSTAYMELSSLRSEDTAVYYCARGGYSGSSYYHPMDYWGQGTLVKVSS | 48.6 | 0.00449 | 95700 | 201 | 0.0124 | 61300 | 60.2 | 0.00441 | 73300
h26D3 HC6 DS S122K (scFv, also called h26D3 DS S122K) scFv: HHHHHHGGGGSGGGGSGGGGSGGGGSDIQMTQSPSSVSASVGDRVTITCKSSQSLLYSTNQKNYLAWYQQKPGKAPKLLIYWASTRESGVPSRFSGSGSGTDFTLTISSLQPEDFATYYCQQYFIYPRTFGCGTKVEIKGGGGSGGGGSGGGGSGGGGSEVQLVQSGAEVKKPGSSVKVSCKASGYIFTDYNMDWVRQAPGQCLEWIGDINPDADTTSYNEKFKGRATLTVDKSTSTAYMELSSLRSEDTAVYYCARGGYSGSSYYHPMDYWGQGTLVTVKS | 62.6 | 0.00482 | 85800 | 170 | 0.0103 | 61500 | 53.7 | 0.00407 | 76400
h26D3 HC6 DS T91S T120K (scFv, also called h26D3 DS T91S T120K) scFv: HHHHHHGGGGSGGGGSGGGGSGGGGSDIQMTQSPSSVSASVGDRVTITCKSSQSLLYSTNQKNYLAWYQQKPGKAPKLLIYWASTRESGVPSRFSGSGSGTDFTLTISSLQPEDFATYYCQQYFIYPRTFGCGTKVEIKGGGGSGGGGSGGGGSGGGGSEVQLVQSGAEVKKPGSSVKVSCKASGYIFTDYNMDWVRQAPGQCLEWIGDINPDADTTSYNEKFKGRATLTVDKSTSTAYMELSSLRSEDSAVYYCARGGYSGSSYYHPMDYWGQGTLVKVSS | 55.5 | 0.00465 | 87200 | 245 | 0.0115 | 46700 | 66.2 | 0.00409 | 61900
h26D3 HC6 DS T120K (scFv, also called h26D3 DS T120K) scFv: HHHHHHGGGGSGGGGSGGGGSGGGGSDIQMTQSPSSVSASVGDRVTITCKSSQSLLYSTNQKNYLAWYQQKPGKAPKLLIYWASTRESGVPSRFSGSGSGTDFTLTISSLQPEDFATYYCQQYFIYPRTFGCGTKVEIKGGGGSGGGGSGGGGSGGGGSEVQLVQSGAEVKKPGSSVKVSCKASGYIFTDYNMDWVRQAPGQCLEWIGDINPDADTTSYNEKFKGRATLTVDKSTSTAYMELSSLRSEDTAVYYCARGGYSGSSYYHPMDYWGQGTLVKVSS | 71.3 | 0.00478 | 67300 | 197 | 0.0113 | 57400 | 59.3 | 0.00429 | 75100
h26D3 HC6 DS V11R (scFv, also called h26D3 DS V11R) scFv: HHHHHHGGGGSGGGGSGGGGSGGGGSDIQMTQSPSSVSASVGDRVTITCKSSQSLLYSTNQKNYLAWYQQKPGKAPKLLIYWASTRESGVPSRFSGSGSGTDFTLTISSLQPEDFATYYCQQYFIYPRTFGCGTKVEIKGGGGSGGGGSGGGGSGGGGSEVQLVQSGAERKKPGSSVKVSCKASGYIFTDYNMDWVRQAPGQCLEWIGDINPDADTTSYNEKFKGRATLTVDKSTSTAYMELSSLRSEDTAVYYCARGGYSGSSYYHPMDYWGQGTLVTVSS |  |  |  | 222 | 0.0113 | 51500 | 54 | 0.00465 | 90400
h26D3 HC6 DS V11R T91A (scFv, also called h26D3 DS V11R T91A) scFv: HHHHHHGGGGSGGGGSGGGGSGGGGSDIQMTQSPSSVSASVGDRVTITCKSSQSLLYSTNQKNYLAWYQQKPGKAPKLLIYWASTRESGVPSRFSGSGSGTDFTLTISSLQPEDFATYYCQQYFIYPRTFGCGTKVEIKGGGGSGGGGSGGGGSGGGGSEVQLVQSGAERKKPGSSVKVSCKASGYIFTDYNMDWVRQAPGQCLEWIGDINPDADTTSYNEKFKGRATLTVDKSTSTAYMELSSLRSEDAAVYYCARGGYSGSSYYHPMDYWGQGTLVTVSS | 58.7 | 0.00419 | 74900 | 206 | 0.012 | 58100 | 61.3 | 0.00458 | 76100
h26D3 HC6 DS S16E L118S (scFv, also called h26D3 DS S16E L118S) scFv: HHHHHHGGGGSGGGGSGGGGSGGGGSDIQMTQSPSSVSASVGDRVTITCKSSQSLLYSTNQKNYLAWYQQKPGKAPKLLIYWASTRESGVPSRFSGSGSGTDFTLTISSLQPEDFATYYCQQYFIYPRTFGCGTKVEIKGGGGSGGGGSGGGGSGGGGSEVQLVQSGAEVKKPGESVKVSCKASGYIFTDYNMDWVRQAPGQCLEWIGDINPDADTTSYNEKFKGRATLTVDKSTSTAYMELSSLRSEDTAVYYCARGGYSGSSYYHPMDYWGQGTSVTVSS |  |  |  | 261 | 0.0109 | 41700 | 67.1 | 0.00387 | 57800
